Article doi:10.1101/2021.12.16.472899 (bioRxiv, 2021)
One block for each binder: values may come before it.

B3: PnsL1 (natural protein, UniProt O80634 81-238, looked up)
chain: AEEIPKSYSPFVDREDGYSYYYPSDWREFDFRAHDSAFKDRYLQLQNVRVRFIPTEKNDIHEVGPMEEVVYDLVKHKFAAPNQVATIYDMKERVEDGKNYYTFEYGLRTPIYATTSFATVAVGNNRYYTLIVGANERRWRKVKKQLQVVADSLKILQI
B4: PnsB2 (natural protein, UniProt Q94AQ8 18-348, looked up)
chain: SSISAPQTQTINTEKLEDKFGRKGIKFSESNNIPMVELKVRNGSSLKLSLSDAHVLSYKPKVYWKDEGFEEVLYTVDGDESRGGVGVVIVNGEEPKGGSSVISGCDWSVKDTDSDAIDALQIELSCTAGVLDITYIVSLYPVSMATALVVKNNGRKPVTLKPGIMSYLRFKKRSGAGIQGLKGCSYCPNPPLSSPFELLSPSEAMKAESSGWFGSEEGEKPGIWAVEDSVITLLEKKMSRIYGAPPAERLKAVYNTPPSKFETIDQGRGLFFRMIRIGFEEMYVGSPGSMWDKYGKQHYFVCTGPTSMLVPVDVASGETWRGAMVIEHDNL
B7: PnsB1 (natural protein, UniProt Q9S9N6 45-461, looked up)
chain: VNLKKKNNPWLDPFDSGEDPDNEYGSLFADGKQDEDPRPPDNPDNPYGFLKFPKGYTVELASLPLKIRGDVRRCCCVISGGVYENLLFFPTIQLIKDRYPGVQVDILTTERGKQTYELNKNVRWANVYDPDDHWPEPAEYTDMIGLLKGRYYDMVLSTKLAGLGHAAFLFMTTARDRVSYIYPNVNSAGAGLMLSETFTAENTNLSELGYSMYTQMEDWLGRPFRSVPRTPLLPLRVSISRKVKEVVAAKYRNAGAVTGKFIVIHGIESDSKASMQSKGDADSLLSLEKWAKIIKGVRGFKPVFVIPHEKERENVEDFVGDDTSIVFITTPGQLAALINDSAGVIATNTAAIQLANARDKPCIGLFSSEEKGKLFVPYAEEKSNCVIIASKTGKLADIDIGTVKNAMQVFEGSLALV
B10: NdhD (natural protein, UniProt P26288 1-500, looked up)
chain: MNDFPWLTIIVVFPISAGSLMLFLPHRGNKVNKWYTICICILELLLTTYAFCYNFKMDDPLIQLSEDYKWIDFFDFYWRMGIDGLSIGTILLTGFITTLATLAAFPVTRDSRFFHFLMLAMYSGQIGSFSSRDLLLFFIMWELELIPVYLLLSMWGGKKRLYSATKFILYTAGSSIFLLIGVLGISLYGSNEPTLNLELLANKSYPVTLEILFYIGFLIAFAVKSPIIPLHTWLPDTHGEAHYSTCMLLAGILLKMGAYGLVRINMELLPHAHSMFSPWLLVVGTIQIIYAASTSPGQRNLKKRIAYSSVSHMGFIIIGISSITDPGLNGAILQIISHGFIGAALFFLAGTSYDRIRLVYLDEMGGMAISIPKIFTMFTILSMASLALPGMSGFIAEFIVFFGIITSQKYFLISKIFIIFVMAIGMILTPIYLLSMLRQMFYGYKLINIKNFSFFDSGPRELFLSISILLPIIGIGIYPDFVLSLASDKVESILSNYFYG

Columns and labels:
Test in all cases: cryo-EM structure
PnsL1 = molecular target: B3
NdhA = molecular target: T1, NdhA (Arabidopsis thaliana (endogenous in the …, UniProt Q37165 1-360))
T1 sequence (looked up): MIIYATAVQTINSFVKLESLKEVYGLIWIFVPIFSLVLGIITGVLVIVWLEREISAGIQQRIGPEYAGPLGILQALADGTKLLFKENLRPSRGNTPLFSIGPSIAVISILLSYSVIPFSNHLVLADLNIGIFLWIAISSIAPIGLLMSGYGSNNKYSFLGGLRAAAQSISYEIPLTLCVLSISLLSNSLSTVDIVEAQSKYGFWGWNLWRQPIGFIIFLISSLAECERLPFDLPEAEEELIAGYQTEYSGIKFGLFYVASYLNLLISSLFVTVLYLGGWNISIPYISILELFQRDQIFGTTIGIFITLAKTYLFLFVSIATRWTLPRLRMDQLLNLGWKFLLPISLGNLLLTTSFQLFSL

NdhD = molecular target: B10
NdhF = NdhF (Arabidopsis thaliana (endogenous in the …, UniProt P56752 1-746))
Chain of NdhF (Arabidopsis thaliana (P56752 whole entry): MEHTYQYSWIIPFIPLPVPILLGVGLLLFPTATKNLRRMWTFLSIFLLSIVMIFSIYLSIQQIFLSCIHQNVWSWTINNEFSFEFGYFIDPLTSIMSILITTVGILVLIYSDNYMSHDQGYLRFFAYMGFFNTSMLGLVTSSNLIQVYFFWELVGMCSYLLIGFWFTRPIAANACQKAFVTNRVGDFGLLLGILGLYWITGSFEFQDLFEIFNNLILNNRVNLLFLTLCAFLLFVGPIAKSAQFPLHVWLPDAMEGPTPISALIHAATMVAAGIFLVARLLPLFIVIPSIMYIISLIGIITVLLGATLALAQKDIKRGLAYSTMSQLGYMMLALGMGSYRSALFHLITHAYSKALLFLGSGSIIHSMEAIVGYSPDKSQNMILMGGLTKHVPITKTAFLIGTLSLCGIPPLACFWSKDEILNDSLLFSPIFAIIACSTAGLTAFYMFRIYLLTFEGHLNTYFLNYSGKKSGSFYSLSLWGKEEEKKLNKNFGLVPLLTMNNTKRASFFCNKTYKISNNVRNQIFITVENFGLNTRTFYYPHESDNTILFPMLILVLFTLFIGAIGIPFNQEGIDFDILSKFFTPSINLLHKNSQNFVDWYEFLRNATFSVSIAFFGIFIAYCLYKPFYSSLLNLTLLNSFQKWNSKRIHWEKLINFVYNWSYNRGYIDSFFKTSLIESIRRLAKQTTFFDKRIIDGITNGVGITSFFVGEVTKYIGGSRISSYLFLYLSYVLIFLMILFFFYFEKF

PnsB2 = molecular target: B4
PnsB1 = molecular target: B7

binding result (PnsB2): binds | binding result (NdhF): binds
B5: Lhca6 (natural protein, UniProt Q8LCQ4 34-270, looked up)
chain: SSTGGRLMRERLVVVRAGKEVSSVCEPLPPDRPLWFPGSSPPEWLDGSLPGDFGFDPLGLGSDPDTLKWFAQAELIHSRWAMLAVTGIIIPECLERLGFIENFSWYDAGSREYFADSTTLFVAQMVLMGWAEGRRWADLIKPGSVDIEPKYPHKVNPKPDVGYPGGLWFDFMMWGRGSPEPVMVLRTKEIKNGRLAMLAFLGFCFQATYTSQDPIENLMAHLADPGHCNVFSAFTSH

binding result (PnsB2): binds | binding result (NdhF): binds | binding result (PnsB1): binds
B6: PnsB3 (natural protein, UniProt Q9LU21 49-204, looked up)
chain: AISTAPASQPPAADEPDEPPAVDFAFVHSVLLPDGTPDVHWRRANGGQKLRDIMLDSNIELYGPYSKPLSNCAGVGTCATCMVEIVNGKELLNPRTDIEKEKLKRKPKNWRLACQTNVGNPDSTGLVVIQQLPEWKAHEWNIPKNIPNDDDLETST

binding result (PnsB1): binds
B8: Lhca5 (natural protein, UniProt Q9C639 33-256, looked up)
chain: AAGGGINPTVAVERATWLPGLNPPPYLDGNLAGDYGFDPLGLGEDPESLKWYVQAELVHSRFAMLGVAGILFTDLLRTTGIRNLPVWYEAGAVKFDFASTKTLIVVQFLLMGFAETKRYMDFVSPGSQAKEGSFFFGLEAALEGLEPGYPGGPLLNPLGLAKDVQNAHDWKLKEIKNGRLAMMAMLGFFVQASVTHTGPIDNLVEHLSNPWHKTIIQTLFTSTS

binding result (NdhF): binds
B9: Lhca2 (natural protein, UniProt Q9SYW8 44-257, looked up)
chain: RAVAADPDRPIWFPGSTPPEWLDGSLPGDFGFDPLGLSSDPDSLKWNVQAEIVHCRWAMLGAAGIFIPEFLTKIGILNTPSWYTAGEQEYFTDKTTLFVVELILIGWAEGRRWADIIKPGSVNTDPVFPNNKLTGTDVGYPGGLWFDPLGWGSGSPAKLKELRTKEIKNGRLAMLAVMGAWFQHIYTGTGPIDNLFAHLADPGHATIFAAFTPK

Second part, the binder before the results:

B1: PnsL2 (natural protein, UniProt Q9XI73 69-190, looked up)
chain: WGTRSFIKEKYFMPGLSPEDAAARIKQTAEGLRDMREMLDHMSWRYVIFYIRLKQAYLSQDLTNAMNILPESRRNDYVQAANELVENMSELDFYVRTPKVYESYLYYEKTLKSIDNVVEFLA
binding result (PnsL1): binds | binding result (NdhA): binds

B2: PnsL5 (natural protein)
chain: not shown
binding result (NdhD): binds

Binder: B3
binding result (NdhA): binds

Binder: B4
binding result (NdhF): binds

Binder: B7
binding result (NdhD): binds | binding result (NdhF): binds

Binder: B10
binding result (NdhF): binds
